Columns and labels:
Cyno DLL3-ECD = test: SPR, immobilized DARPin, binding of cyno DLL3-ECD (Example 17); design: species or system cynomolgus monkey; settings: immobilized biotinylated DARPin, DLL3-ECD as analyte, 1:1 Langmuir, Table 19
Description: (§1) Kinetic binding parameters and binding affinities of two domain (2D) ankyrin repeat protein MAM279 and single domain (1 D) ankyrin repeat protein MAM093 to DLL3 from different species were determined. The DLL3-specific ankyrin repeat domain of MAM093 is identical to the DLL3-specific ankyrin repeat domain comprised in MAM279.
(§2) SPR multi-trace analyses were performed similarly as described in Examples 1 and 11. Here, the binding kinetics of immobilized DARPin proteins to the extracellular domain of DLL3 (DLL3-ECD) from human, cynomolgus monkey, mouse and pig were determined. Various concentrations of recombinant DLL3-ECD starting from 500 nM were applied to immobilized biotinylated 2D DARPin (MAM279; SEQ ID NO: 11) or 1 D DARPin (MAM093; SEQ ID NO: 1) (both with a Glycine-Serine (GS) at the N-terminal end) for on-rate and off-rate measurements.
(§3) Streptavidin SAHC200M (Xantec) SPR chip was conditioned according to the manufacturer's protocol. Biotinylated DARPins were immobilized to a coating density of 27 resonance units (RU) for 1D DARPin and 25 RU for 2D DARPin. All analytes (3-fold dilution ranging from 500-6.17 nM) were injected in succession for 240 s and dissociation was recorded for 10800 s using a constant flow of 100 μl/min.

mouse DLL3-ECD = biological target: T1, mouse DLL3-ECD (Mus musculus, UniProt O88516); test: SPR, immobilized DARPin, binding of mouse DLL3-ECD (Example 17); settings: immobilized biotinylated DARPin, DLL3-ECD as analyte, 1:1 Langmuir, Table 20
T1 construct: the extracellular domain of DLL3 (DLL3-ECD) from human, cynomolgus monkey, mouse and pig
T1 sequence (O88516 33-490 limits assumed): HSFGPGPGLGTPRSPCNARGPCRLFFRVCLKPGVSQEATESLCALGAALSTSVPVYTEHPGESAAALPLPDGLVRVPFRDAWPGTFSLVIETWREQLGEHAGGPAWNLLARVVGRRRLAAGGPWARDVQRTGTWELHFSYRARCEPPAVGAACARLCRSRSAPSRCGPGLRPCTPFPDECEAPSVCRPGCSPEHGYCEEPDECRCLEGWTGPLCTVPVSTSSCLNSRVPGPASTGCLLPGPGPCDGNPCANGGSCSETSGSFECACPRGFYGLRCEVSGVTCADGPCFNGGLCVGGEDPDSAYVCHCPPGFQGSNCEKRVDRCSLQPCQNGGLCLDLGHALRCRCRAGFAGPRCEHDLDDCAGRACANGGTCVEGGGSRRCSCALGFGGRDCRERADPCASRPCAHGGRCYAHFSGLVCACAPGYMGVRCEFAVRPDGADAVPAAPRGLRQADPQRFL
Description: as §1, §2, §3

NCI-H82 tumors = test: Efficacy (tumor growth) in NCI-H82 tumor model; format: in vivo, mouse; settings: for Mean Diff.: Dunnett's multiple comparisons test, tumor volume in mm^3, NCI-H82, R2G2 mice
Description: To determine the efficacy of radio-labelled (Pb-212) DARPin (MAM279) conjugate in inhibiting the growth of tumors that express DLL3, different dose regimens (single or repeated dose) of the conjugate were tested in a relevant mouse tumor model (NCI-H82).
Animals were under observation daily and 3× per week tumors were measured by caliper. Animals were sacrificed when tumors reached 1500 to 2000 mm^3 or if termination criteria were met. The data were expressed as average+/−SEM of tumor volume in mm^3.
To determine the efficacy of more frequent repeat-dosing of radio-labelled (Pb-212) DARPin (MAM279) conjugate in inhibiting the growth of tumors that express DLL3, a weekly repeat-dosing regimen of the conjugate was tested in a relevant mouse tumor model (NCI-H82).
Corresponding injections of buffer only were done as control. The first weekly injection of radio-labeled molecules was done 14 days after xenografting the NCI-H82 cells. Animals were under observation daily and 3× per week tumors were measured by caliper. Animals were sacrificed when tumors reached 1500 to 2000 mm^3 or if termination criteria were met. The data were expressed as average+/−SEM of tumor volume in mm^3. Results are shown in FIGS. 20A to 20D and Table 23.

human serum albumin = human serum albumin (Homo sapiens, UniProt P02768); settings: class in words (Low, Mid, High); Table 5
Description: For SPR analysis, the free Cysteine of the 2D DARPins was capped with Iodoacetamide (IAM). A surface plasmon resonance (SPR) assay was then used to determine the binding kinetics of the three 2D DARPins to human or mouse serum albumin. Various concentrations of 2D DARPins starting from 2000 nM were applied to immobilized human serum albumin (HSA) or mouse serum albumin (MSA) for on-rate and off-rate measurements.
The data were generated using a BioRad ProteOn instrument with SPR running buffer (PBS, pH 7.4 containing 0.05% Tween 20®). A HC200M chip (Xantec) was conditioned according to the manufacturer's protocol. The chip was coated with purified human serum albumin (HSA, CSL) or mouse serum albumin (MSA, Sigma-Aldrich) in NaOAc pH5.0 to reach a signal intensity of ˜380 (HSA) or ˜630 (MSA) RU for the analysis of Intermediate HSA affinity 2D DARPin and High HSA affinity 2D DARPin; ˜1125 (HSA) or ˜1965 (MSA) for the analysis of Low HSA affinity 2D DARPin. All analytes (3-fold dilution ranging from 2000-24.69 nM) were injected in succession for 240 s (50 μl/min) and dissociation was recorded for 600 s (50 μl/min). The data was double referenced (control spot and buffer injection) and fitted to a 1:1 Langmuir model. The obtained SPR traces were used to determine binding parameters.

hDLL3-MC38 tumors = test: Efficacy (tumor growth) in hDLL3-MC38 tumor model; format: in vivo, mouse; settings: tumor volume in mm^3, hDLL3-MC38
Description: To determine the efficacy of radio-labelled (Pb-212) DARPin (MAM160) conjugate in inhibiting the growth of tumors that express DLL3, different dose regimens (single or repeated dose) of the conjugate were tested in a mouse tumor model (hDLL3-MC38).
The first injections were done 7 days after the xenografts. Animals were under observation daily and 3× per week tumors were measured by caliper. Animals were sacrificed when tumors reached 1000 mm^3 or if termination criteria were met. The data were expressed as average+/−SEM of tumor volume in mm^3.

B1: MAM279: Two domain (2D) ankyrin repeat protein: serum albumin-specific domain (SEQ ID NO: 7), PT linker, DLL3-specific domain of MAM093 (protein)
chain: DLGKKLLEAARAGQDDEVRELLKAGADVNAKDYFSHTPLHLAARNGHLKIVEVLLKAGADVNAKDFAGKTPLHLAADAGHLEIVEVLLKAGADVNAQDIFGKTPADIAADAGHEDIAEVLQKAAGSPTPTPTTPTPTPTTPTPTPTGSDLGKKLLAAAAQGQDDEVRELLKAGANVNAKDLFGYTPLHLAAWRGHLEIVEVLLKAGADVNAKDAAGETPLHLAAWFGHLEIVEVLLKAGADVNAQDLQGKTPADLAAKEGHEDIAEVLQKAA
modifications: Ankyrin repeat protein (MAM279)
Kd (Cyno DLL3-ECD): 8.88 nM
Koff Cyno DLL3-ECD (Cyno DLL3-ECD): 0.000939 s⁻¹
Kon Cyno DLL3-ECD (Cyno DLL3-ECD): 106000 M⁻¹ s⁻¹
Kd (mouse DLL3-ECD): 83.9 nM
Koff mouse DLL3-ECD (mouse DLL3-ECD): 0.00282 s⁻¹
Kon mouse DLL3-ECD (mouse DLL3-ECD): 33700 M⁻¹ s⁻¹

B2: MAM279 conjugate: SEQ ID NO: 15 conjugated to DOTAM-maleimide, labelled with Pb-212 (natural lead in PK studies) (conjugate)
chain: GSDLGKKLLEAARAGQDDEVRELLKAGADVNAKDYFSHTPLHLAARNGHLKIVEVLLKAGADVNAKDFAGKTPLHLAADAGHLEIVEVLLKAGADVNAQDIFGKTPADIAADAGHEDIAEVLQKAAGSPTPTPTTPTPTPTTPTPTPTGSDLGKKLLAAAAQGQDDEVRELLKAGANVNAKDLFGYTPLHLAAWRGHLEIVEVLLKAGADVNAKDAAGETPLHLAAWFGHLEIVEVLLKAGADVNAQDLQGKTPADLAAKEGHEDIAEVLQKAAGSGSC
modifications: DOTAM-maleimide, Pb-212 label; Ankyrin repeat protein with tag (GS-MAM279-tag)
Mean Diff. (NCI-H82 tumors; Buffer only vs. (4 × 10μCi, 1 wk)): 731.9
Mean Diff. (NCI-H82 tumors; Buffer vs. conjugate (1 × 10μCi)): 140.6
Mean Diff. (NCI-H82 tumors; Buffer vs. conjugate (4 × 10μCi, injections 2 weeks apart)): 429.7
efficacy in inhibiting the growth of NCI-H82 tumors (NCI-H82 tumors; Pb-212 labelled conjugate, 1×10 μCi or 4×10 μCi (2 weeks apart), in words): good efficacy
potency versus benchmark antibody (Rova) conjugate (NCI-H82 tumors; both at 4×10 μCi, NCI-H82 tumors, in words): more potent than the benchmark antibody (Rova) conjugate
complete tumor regression (NCI-H82 tumors; four times weekly at 10 μCi, NCI-H82, day 63 post-tumor cell xenograft): about 70 % of mice
efficacy in inhibiting the growth of NCI-H82 tumors (NCI-H82 tumors; injected four times weekly at 10 μCi, in words): strong and statistically significant efficacy

B3: MAM160: Two domain (2D) ankyrin repeat protein: serum albumin-specific domain (SEQ ID NO: 7), PT linker, DLL3-specific domain MAM120 (protein)
chain: DLGKKLLEAARAGQDDEVRELLKAGADVNAKDYFSHTPLHLAARNGHLKIVEVLLKAGADVNAKDFAGKTPLHLAADAGHLEIVEVLLKAGADVNAQDIFGKTPADIAADAGHEDIAEVLQKAAGSPTPTPTTPTPTPTTPTPTPTGSDLGTKLLSAAADGQDDEVRELLQAGADVNAKDLFGYTPLHLAAWRGHLEIVEVLLEAGADVNAKDAAGLTPLHLAAWFGHLEIVEVLLEAGADVNAQDVQGVTPADLAAKEGHEDIAEVLQQAA
modifications: Ankyrin repeat protein (MAM160)
HSA affinity (human serum albumin): High

B4: Rova: Rova antibody, DLL3-binding benchmark antibody used as positive control and comparison (antibody, chains of the INN, looked up, V domains shown)
VH: QVQLVQSGAEVKKPGASVKVSCKASGYTFTNYGMNWVRQAPGQGLEWMGWINTYTGEPTYADDFKGRVTMTTDTSTSTAYMELRSLRSDDTAVYYCARIGDSSPSDYWGQGTLVTVSS
VL: EIVMTQSPATLSVSPGERATLSCKASQSVSNDVVWYQQKPGQAPRLLIYYASNRYTGIPARFSGSGSGTEFTLTISSLQSEDFAVYYCQQDYTSPWTFGQGTKLEIK
Mean Diff. (hDLL3-MC38 tumors; Dunnett's multiple comparisons test, Buffer vs. 3 × 10μCi (1 week apart)): 251.6
Mean Diff. (hDLL3-MC38 tumors; Tukey's multiple comparisons test, Buffer vs. 3 × 10μCi): 251.6

Reference: US20250332297A1, “DLL3-SPECIFIC BINDING CONSTRUCTS AND THEIR USE IN RADIOTHERAPY” (MOLECULAR PARTNERS AG, priority 2024, published 2025)
